# Measurements reported in paper doi:10.1101/2021.12.01.470723 (bioRxiv, 2021).
# Numbering of substitutions follows the chain as printed. Numbers in names are those of the source.
# B1: recombinant human (rh) wildtype proSP-C BRICHOS (domain or fragment, UniProt P11686 86-197, looked up)
# chain: EHLVTTATFSIGSTGLVVYDYQQLLIAYKPAPGTCCYIMKIAPESIPSLEALTRKVHNFQMECSLQAKPAVPTSKLGQAEGRDAGSAPSGGDPAFLGMAVSTLCGEVPLYYI
# notes: human prosurfactant protein C (proSP-C), BRICHOS domain, residues 86-197; By SEC mainly a trimer, with some dimers and monomers; also called rh proSP-C BRICHOS; wt proSP-C BRICHOS; source: E. coli Origami 2 (DE3) pLysS, purified (Ni-NTA, ion exchange QFF; thrombin cleavage); not shown: thioredoxin, N-terminal, cleaved
# B2: rh proSP-C BRICHOS D105N (domain or fragment, human, UniProt P11686 86-197, looked up)
# chain: B1 chain with D20N
# notes: human prosurfactant protein C (proSP-C), BRICHOS domain, residues 86-197, with D105N; By SEC a trimer, with more dimers and less monomers than the wildtype; also called D105N mutant; source: E. coli Origami 2 (DE3) pLysS, purified (Ni-NTA, ion exchange QFF; thrombin cleavage); not shown: thioredoxin, N-terminal, cleaved
# B3: rh Bri2 BRICHOS D148N (domain or fragment, human, UniProt Q9Y287 113-231, looked up)
# chain: QTIEENIKIFEEEEVEFISVPVPEFADSDPANIVHNFNKKLTAYLDLNLDKCYVIPLNTSIVMPPRNLLELLINIKAGTYLPQSYLIHEHMVITDRIENIDHLGFFIYRLCHDKETYKL
# notes: human integral membrane protein 2B (Bri2), BRICHOS domain, residues 113-231, with D148N; Isolated by SEC as monomer, dimer and oligomer fractions; the assay's format tells which fraction was used; also called D148N mutant; source: E. coli SHuffle T7, purified (Ni-NTA, thrombin cleavage, second Ni-NTA, SEC); not shown: His6, N-terminal, cleaved; NT* solubility tag, N-terminal, cleaved
# B4: rh Bri2 BRICHOS T206W (domain or fragment, human, UniProt Q9Y287 113-231, looked up)
# chain: B3 chain with N36D, T94W
# notes: human integral membrane protein 2B (Bri2), BRICHOS domain, residues 113-231, with T206W; Monomer and dimer fractions were used for Trp fluorescence; also called rh Bri2 BRICHOS Trp mutant; source: E. coli SHuffle T7, purified (Ni-NTA, thrombin cleavage, second Ni-NTA, SEC); not shown: His6, N-terminal, cleaved; NT* solubility tag, N-terminal, cleaved
# Legend:
# [1] = target: the molecule itself; assay: SEC; purified rh proSP-C BRICHOS variants on Superdex 200 GL
# [2] = target: the molecule itself; assay: SEC; rh Bri2 BRICHOS D148N monomer fraction at 0.5, 1, 5, 10, 15 and 100 µmol L^-1; monomer to dimer
# [3] = target: the molecule itself; assay: SEC; Bri2 BRICHOS species after thrombin removal of His6-NT* from the fusion protein's monomer, dimer and oligomer fractions; 20 mmol L^-1 NaPi, 0.2 mmol L^-1 EDTA
# [4] = target: the molecule itself; assay: other fluorescence titration; Trp fluorescence of 2 µmol L^-1 rh Bri2 BRICHOS T206W monomers, 20 mmol L^-1 NaPi, 0.2 mmol L^-1 EDTA, pH 6.3-8.0; excitation 280 nm; monomer to dimer
protein,measurement,setting,value
B1,stoichiometry N,[1],3
B2,stoichiometry N,[1],3
B3,ratio of dimers to monomers at 0.5 µmol L^-1,[2],~1 dimers:monomers
same,stoichiometry N,[3],2
B4,binding result,[4],binds
